Source: article PMC9943657, “Structural basis for topological regulation of Tn3 resolvase” (Nucleic Acids Research, 2021)

Biological target: the molecule itself
Assay: crystal structure; Form I crystals, P4(3)2(1)2, 3.4 Å; Tn3 resolvase mixed with site III DNA duplex in a 2:1.25 molar ratio; one dimer-site III DNA complex in the asymmetric unit; step: two subunits in the DNA-bound dimer

B1: Tn3 resolvase (wild-type, with SHHHHHH added after the natural C-terminus) (enzyme, transposon Tn3, UniProt P0ADI2 1-185, looked up)
chain: MRIFGYARVSTSQQSLDIQIRALKDAGVKANRIFTDKASGSSTDREGLDLLRMKVEEGDVILVKKLDRLGRDTADMIQLIKEFDAQGVAVRFIDDGISTDGDMGQMVVTILSAVAQAERRRILERTNEGRQEAKLKGIKFGRRRTVDRNVVLTLHQKGTGATEIAHQLSIARSTVYKILEDERAS
notes: Tn3 resolvase, wild type, encoded by the Tn3 transposon; GenBank CAA23885.1; The 7 C-terminal residues (SHHHHHH) were disordered in the crystal structure; also called WT Tn3 resolvase; source: E. coli Rosetta DE3 pLysS from plasmid pSA1121; not shown: SHHHHHH (Ser-His6), C-terminal, kept
- binding result: binds
